Measured values reported in the nanobody polyreactivity screen of Harvey et al. (2022).

Assay: yeast display, Sf9 membrane polyspecificity reagent, FACS + sequencing; frameworks hold sequencing errors
Summary of the method: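 After 36–48 hours of galactose induction, yeast (Saccharomyces cerevisiae BJ5465) displaying a synthetic nanobody library were stained at 4 °C for 1 hour with 10% biotinylated, detergent-solubilized Sf9 membrane reagent. Streptavidin microbeads enriched the stained cells before FACS sorting into low and high (top ~1%) gates on anti-HA and streptavidin fluorescence. Each clone's polyreactivity label reflects its gate of origin.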

Row | Sequence | polyreactivity (PSR sort gate)
1 | QVQLVESGGGLVQAGVSLRLSCAASGNIFEQYAMGSDRQAPGKERELVARISWRGGSTYYADSVKGRFTISRDNAKNTVYLQLNSLKPEDTAVYYCNALEVVYFGYYPSDYWGQGTQVTVSS | low polyreactivity
2 | QVQLVESGGGLVQAGVSLRLSCAASGRIFPYNAMGWDRQAPGKERELVAAIDWSGGRTYYADSVKGRFTISRDNAKNTDYLQMNSLKPEDTALYYCAAAYGGRLRYTAGYYWGQGTQVTVSS | high polyreactivity
3 | QVQLVESGGGLVQAGVSLRLSCAASGRIKDNVMGWYRQAPGKERELVAAITRYAGRTYYAYSVKGRFTISRDNAKITVYLQMNSLKPVDTAVYYCAAQAERSGYEYWGLGTQVTVSS | low polyreactivity
4 | QVQLVESGGGLVQAGVSLRLSCAASGRTFIGNAMGWYRQAPGKEREFVAAISRRGGSTYYADSVKGRFTISRDNAKNTVYLQMNSLKPEDTAVYYCAAGQTTTGILTYYYWGQGTQVTVSS | high polyreactivity
5 | QVQLVESGGGLVQAGVSLRLSCAASGSTFGANAMGWYRQAPGKEREFVAAISGSGTTTYYADSVKGRFTISRDNAKNTVYLQMNSLKPEDTAVYYCAKTRKAHWLEYWGQGTQVTVSS | low polyreactivity
6 | QVQLVESGGGLVQAGVSLRLSCAASGSTFVVNAMGWYRQAPGKERELVAAITQSGGSTFYADSVKGRFTISRDNAKNTVYLQMNSLKPEDTAVYYWGQGTQVTVSS | low polyreactivity
7 | QVQLVESGGGLVQAGVSLRLSCAASMGWYRQAPGKERELVAAITRGGTTYYADSVQGRFTISRDNAKNTVYLQMNSLKPEDTAVYYGAKAGPGFLYDHWGQGTQVTVSS | high polyreactivity
8 | QVQLVESGGGLVQAGVSLRLSCAASVITFVYYTMGWYRQAPGKERELVAAISQSAVNTYYADSVKGRFTISRDNAKNTVYLQMNSLKPEVTAVYYCNARFRATFTSYGTDYRRRFDYWGQGTQVTVSS | high polyreactivity
9 | QVQLVESGGGLVQAGVSLRLSCAASVSIFSGNTMGWYRQAPGKERELVAAIRWRGGTYYADSVKGRFTISRDNAKNTVYLQMNSLKPEDPAVYYCATSVKPSYDYWGQGTQVTVSS | low polyreactivity
10 | QVQLVESGGGLVQAGVSLRLSSAASGSTFLYYAMGWYRQAPGKESEMVAAIDWSDTSTYFADSVKGRFTISRDIAKNTVYLQMNSLKTEDTAVYYCIREATYVYAAGYDYWGQGTQVTVSS | low polyreactivity
11 | QVQLVESGGGLVQAGVSLRLSSAASGSTLGYNVMGWYRQAPGKERELVAAISGDGSTNYADSVKGRFTISRDNAKNTVYLQMNSLKPEDTAVFYCNAPFWGYRTSFSYPVVQRFDYWGQGTQVTVSS | low polyreactivity
12 | QVQLVESGGGLVQAGVSLSLSCADSGSFSDFYAMGWYRQAPGKERELVAAITSSGGSTYYADSVKGRFTISREIAKNTGYLQMNSLKPEDTAVYYCNRYSNLGYNYWGQGTQVSVSS | high polyreactivity
13 | QVQLVESGGGLVQAPGSLRLSSAASGRIFNQYGMGWYRQAPGKERELVAAIRSGDSTNYADSVKGRFTISRDNAKNTVYLQMNSLKQEDSAVYYCARDRPGDYAGYYYWGKGTQVTVSS | low polyreactivity
14 | QVQLVESGGGLVQARASLRLSCAASGNTIGYYAMGWYRQAHGKERELVAAISKRGGSTRYADSVKGRFTISRDNAKNTVYLQMNSLKPEDTAVYYCNAEGFGSLRYSYCNSFDYWGQGTQVTVSS | high polyreactivity
15 | QVQLVESGGGLVQARGSHRLSCAASGSIFVINAMGWYRQAPGKERELVAAISYSGTGTYFADSVKGRFTISRDNAKNTVYLQMNSLKPEDTAVYYCAADYYYRYRIYDYWGQGTQVTVSS | low polyreactivity
16 | QVQLVESGGGLVQARGSLRLICAASGRTINGYVMGWYRPAPGKEREFVAVINWSGGNTYYADSVKGRFTISRDNAKNTLYLQMNSLKPEDTAVYDCAARRVRSYAYDYWGQGTEVTVSS | high polyreactivity
17 | QVQLVESGGGLVQARGSLRLNSAASGRTFYQYVMGWYRQAPWKERELVAAIRSGGNTYYADSEKGRITISRDNAKYTVYLQMNSLKPEDTAVYYCAVQRGYYRFRLGLYCYDYWGQGTQVTVSS | high polyreactivity
18 | QVQLVESGGGLVQARGSLRLSCAASGFTSLWNGMGLSSQAPGKERELVAAITSDSSTYYADSVKGRFTISRDNAKNTVYLQMNSLKPEDTAVYYCAKYFVYVGYGRYDYWGQGTEVTVSS | low polyreactivity
19 | QVQLVESGGGLVQARGSLRLSCAASGIIFAFYAMGWYRQPPGKERELVAGITSGGDTYYADSVKGRFTISRDNAKKTVYLQMNRLKPEDTAVYYCAAVVQYPYRAGWRYWYATNFDYWGQGTQVTVSS | high polyreactivity
20 | QVQLVESGGGLVQARGSLRLSCAASGIIFYPNAMGWYRQAPGKERELVASIRSGGITTYADSVKGRFTISRDNAKNTVYLQMNSLKPEDTAVYDCATRSYYRYATFAYYYWGQGTQVTVSS | high polyreactivity
21 | QVQLVESGGGLVQARGSLRLSCAASGINFYHYPMGWYRQATGKEMELVAAINWGGSRTYYADSVKGRFTISRDNAKNTVYLQMNSLKPEDTAVYYCAAVYVPYYWLGRSRGLDYWGQGTQVTVSS | high polyreactivity
22 | QVQLVESGGGLVQARGSLRLSCAASGRIFGLYAMGWYRQAPGKERELVASINSRGGSTNYADSVKGRFTISRDNAKNTVYLQMTSLKPEDTAVYYCNARFVYAYQRYYWGQGTQVTVSS | high polyreactivity

Row | Sequence | polyreactivity (PSR sort gate)
23 | QVQLVESGGGLVQARGSLRLSCAASGRIFNYNAMGWYRQAPGKERELVAAITSSGGSTYYADSVKGRFTISRDNAKNTVYLQMNSLKPEDTAVYYCNALITYSSDYWGQGTQVTVSS | low polyreactivity
24 | QVQLVESGGGLVQARGSLRLSCAASGRTFFNNAMGWYRQAPGKERELVAGISVTTGSTYYADSVKGRFTISRDNAKNTVYLQMNSLKPEDTAVYYCAARRKQYYAAYRYYYWGQGTQVTVSS | high polyreactivity
25 | QVQLVESGGGLVQARGSLRLSCAASGRTFTYNAMAWYRQAPGKERELVAAINSGGSTNYADSVKGRFTISRDNAKNTVYLQMNSLKPEDTAVYYCNAGFGFGSSRYGTRYYYWGQGSQVTVSS | low polyreactivity
26 | QVQLVESGGGLVQARGSLRLSCAASGRTFYYYAMGWSRQAPGKERELVATISSGGSTSYADSVKGRFTISRDNAKNTVNLQMNSLKPEDTAVYYWNGRGRYLGTYHLGRLYNFWGQGTQVTVSS | high polyreactivity
27 | QVQLVESGGGLVQARGSLRLSCAASGSIFPPYAMGWYRQAPGKERELVAAINSGGSTNYADSVKGRFTISRDNAKNTVYLQMNSLKAEDTAVYYCAAEVVYPVYEYDYWGQGTQVTVSS | low polyreactivity
28 | QVQLVESGGGLVQARGSLRLSCAASGSIFSYYARGLYRQAPGKESELVAAITRGGTTYYADSVKGRFTISRDNAKNSVYLQMNSLKPEDTAVYYCAVYYYSGTAGYRYGYWGQGSQVTVSS | high polyreactivity
29 | QVQLVESGGGLVQARGSLRLSCAASGSTFDPYAMGWYRQAPGINYSGASTYYADSVKGRFTISRDNAKNTVYLQMNSLKPDDTAVYYCAAEFVAQMNYWGQGTQVNVSS | low polyreactivity
30 | QVQLVESGGGLVQARGSLRLSCAASGSTFEANSMGWYRQAPGKERELVAVLTWTGGSTYYADSVKGRFTISRDNAKNTVNLHMISLNPEDTAVEYCAADGVLPGRFFWPAHEYDYWGQGTQVTVSS | low polyreactivity
31 | QVQLVESGGGLVQARGSLRLSCAASGSTFSYNDMGWYRQAPGKERDLVADINVSVGRTYYADSVKGRFTISRDNAKNTVFLQMNSLKPEDTAVYYCNATLYTITSYVYAYDYWGQGTQVTVSS | low polyreactivity
32 | QVQLVESGGGLVQARGSLRLSCAASGSTFSYYTMGWYREAPGKERELVAAITRRGDSTYADSVKGRFTISRDNAMNTVYLQLNSLKPEDTAVYYFAADDYVGVSGMDYWGQGTQVTVSS | low polyreactivity
33 | QVQLVESGGGLVQARGSLRLSCAASGSTLSPYVMGWYRQAPGKERELVATISRSGGRTYYADSVKGRFTISRDNAKNTVYLQMNSLKPEDTAVYYCAARTYYWGALIVSYDYWGQGTQGTVSS | low polyreactivity
34 | QVQLVESGGGLVQARGSLRLSCAATGFTIWQNAMGWYRQPQGKERELVAGIRLSGGSTYADSVKGRFTIARDNAKNTVYLQMNSLKPEDTAVYYCAARIAGNYRYRSLRYDYWGQGTQVTVSS | high polyreactivity
35 | QVQLVESGGGLVQARGSLRLSCAPSGFTFEAYAMGWYRQAPGKERELVAAISSSDTTSYADSVKGRFTISRDNAKNTVYLQMNSLKREDTAVYYCAADDWYTGYDYWGQGTQVTVSS | high polyreactivity
36 | QVQLVESGGGLVQARGSLRLSCAPSGSIFDHNAMGWYRQAPGKESEFVAAISSSGGSTNYADSVKGRFTISRDIAKNTVYLQMNSLKPEDTAVYYCAAYPDRYVELGYWGQGTQVTVSS | low polyreactivity
37 | QVQLVESGGGLVQARGSLRLSCASSGSTFSRYAMGWYRQAPGKERELVAGISWSGGNTYYADSVKGRFTISRDNAKNTVYLQMNSLKPEDTAVYYCAADFLDYWGVYGWAEYEYWGQGTQVTVSS | low polyreactivity
38 | QVQLVESGGGLVQARGSLRLSCSASGSIIDIYAMGWYRQAPGKERELVAAITGGGSTNYADSVKGRFTISRDNAKNTVYLQMNILKPEDTAVYYCAAGTYLNGGGEYWGQGTQVTVSS | low polyreactivity
39 | QVQLVESGGGLVQARGSLRLSSAASGIIFCHYVMGWYRQAPGKERELVAAISSRGGNTYYADSVKWRFTISRDNAKNTVYFQMNSLKPEDTAVYYCNARGGARAWYFAYNYWGHGTQVTVSS | high polyreactivity
40 | QVQLVESGGGLVQARGSLRLSSAASGRTFHYNAMGWYRQAPGKERELVAAISFNGGGTYYADSVKGRFTISRDNAKNTVYLQMNCLKTEDTAVYYCATDVPSRYDYWGQGTQVTVSS | low polyreactivity
41 | QVQLVESGGGLVQARGSLRLSSAASGSTFYDYAMGWYRHAPGKERELVAAISGNGDSTYYADSVKGRFTISRDNAKNTVYLQMNSLNPEDTAVYYCAAYLGWGYDYWGQGTQVTVSS | low polyreactivity
42 | QVQLVESGGGLVQARGSLRLSSAASRSTFNVYAMGWYRQAPGKERELVAGIRDSDGSTNYADSVKGRFTISRDNAKNTVYLQMNSLKPEDTAVYYCAADLYDINWSVWLDYWGQGTQVTVSS | low polyreactivity
43 | QVQLVESGGGLVQAVCSLRLICAASGLTFGGYSMGWYRQAPAKERELVAAISRSCGSTYYADSVKGRFTISRDNAKNTVFLQMNSLKPEDTAVYYCNAGRDTKYDYWGQGTQVTVSS | low polyreactivity
